In PMC2676315:

How the values were obtained:
Test in all cases: other fluorescence titration; quenching of the tryptophan fluorescence of SET/TAF-Iβ polypeptides (0.2 to 4 μM; excitation 295 nm, emission 345 nm) on addition of histone; PBS, 25°C; non-linear regression; three repeats
[1] = target: SET/TAF-Iβ (1–277), GST removed (human) (UniProt Q01105)
[2] = target: SET/TAF-Iβ (76–210), GST removed (human) (UniProt Q01105)
[3] = target: SET/TAF-Iβ (110–277), GST removed (human) (UniProt Q01105)
[4] = target: SET/TAF-Iβ (1–210), GST removed (human) (UniProt Q01105)
[5] = target: SET/TAF-Iβ (76–185), GST removed (human) (UniProt Q01105)

Kd [1] | Kd [2] | Kd [3] | Kd [4] | Kd [5] | Substance
2870 nM | – | – | – | – | histone H2B (from UniProt P62808 1-126) (natural protein)
150 nM | 140 nM | 160 nM | 130 nM | 100 nM | calf thymus histone H3 (from UniProt P68432 1-136) (natural protein)
